Key:
Raji cells = assay: ADCC assay (CytoTox 96, LDH release), positive control cell line; assay type: cell-based, human; details: E:T=100:1, 2.5 ug/mL, 4 hours
EOL-1 cells = assay: EOL-1 growth with human FLT3 ligand and antibody (Cell Titer Glo, 5 days); assay type: cell-based
Protocol: The ability of FLT3 antibodies (CHv62.21 and v62-1b37.1) to mediate the effect of human FLT3 ligand was evaluated using the human leukemia EOL-1 cell line, which endogenously expresses FLT3. Isotype control antibody (mLys-1c3.1) was also used. […] The next day, cells were treated with 50, 10 or 5 ng/mL of human FLT3 ligand (in 25 μl of complete media) and 10, 1, 0.1 and 0 μg/mL of test antibody (in 25 μl of complete media). Media alone was used as the untreated control. […] At the end of the incubation period, 100 μl of Cell Titer Glo was added to each well and incubated for 30 minutes, shaking, at room temperature.

cell surface FLT3 = cell surface FLT3 (Homo sapiens, UniProt P36888); assay: Binding to cell surface FLT3 by flow cytometry
Description: To express CHv62.21 MAb recombinantly in transfected cells, v62.21 hybridoma MAb variable heavy and light chain sequences were cloned upstream of the human heavy chain IgG1 and human light chain Igκ constant regions respectively. The complete CHv62.21 MAb human heavy chain and light chain cassettes were cloned downstream of the CMV promoter/enhancer in a cloning vector. The recombinant CHv62.21 MAb expressing construct was transfected into CHO cells for stable expression in the Lonza GS system (Lonza, Basel, Switzerland). The CHv62.21 MAb secreted from recombinant CHO cells was purified and evaluated for binding to cell surface FLT3 by flow cytometry.
To express CHv62.21pAF recombinantly in transfected cells, v62-1b21 hybridoma MAb variable heavy and light chain sequences were cloned upstream of the human heavy chain IgG1 and human light chain Igκ constant regions respectively. The complete CHv62.21 MAb human heavy chain and light chain cassettes were cloned downstream of the CMV promoter/enhancer in a cloning vector. […] The CHv62.21pAF secreted from the stable subclone was purified and evaluated for binding to cell surface FLT3 by flow cytometry.

RS-4-11 cells = assay type: cell-based, human
Protocol: Briefly, The RS-4-11 cells were seeded in 50 μl of complete media at a density of 3000 cells per well onto 96 well plates and placed in a tissue culture incubator at 37° C.; 5% CO2. The next day, the ADCs were prepared in complete media at 10 μg/mL and serially diluted 1:5 for a total of 9 points. […] At the end of the incubation period, 20 μl of Presto Blue was added to each well and incubated for 2 hours. The plates were read using a BioTek Synergy H4 plate reader using 540 Excitation and 590 Emission wavelengths and graphed using Graphpad Prism software.

Q: Which ADCC activity (Raji cells) does the source give for Rituximab here?
A: confirms ADCC activity

B1: Human FLT3 ligand: human FLT3 ligand purchased from R and D Systems (protein)
chain: TQDCSFQHSPISSDFAVKIRELSDYLLQDYPVTVASNLQDEELCGGLWRLVLAQRWMERLKTVAGSKMQGLLERVNTEIHFVTKCAFQPPPSCLRFVQTNISRLLQETSEQLVALKPWITRQNFSRCLELQCQPDSSTLPPPWSPRPLEATAPTAPQPP
Q: B1 was tested. Which “effect on growth, FLT3 ligand alone” value (EOL-1 cells) did it give?
A: no effect on growth

B2: v62-1b21: hybridoma FLT3 MAb from VelocImmune mice, fully human variable regions and mouse constant regions (antibody, V domains shown)
VH: EVQLVESGGGLVRPGGSLRLSCAASGFTFSGYSINWVRQAPGKGLEWVSSISSSSNYIYYADSVKGRFTISRDNAKNSLYLQMNSLRAEDTAVYYCAREGFIAGTTFDAFDIWGQGTMVTVSS
VL: DIQMTQSPSSLSASVGDRVTITCRASQGIRNDLGWYQQKPGKAPKRLIYAASSLQSGVPSRFSGSGSGTEFTLTISSLQPEDFATYYCLQHNGFPYTFGQGTKLEIKR
Q: With B2 as the molecule, how does the “binding to cell surface FLT3” value (cell surface FLT3) read?
A: specifically binds to Flt3 protein and Flt3 expressing cells

B3: v62-1b21.1-AGL-0129-08 (conjugate)
VH: B2 VH
VL: B2 VL
Q: With B3 as the molecule, how does the cytotoxicity (RS-4-11 cells) read?
A: can induce cytotoxicity
